First the molecules themselves.
B3: recombinant homomeric GluA4 receptor (C-terminal GFP and Strep tag) (receptor, UniProt P19493 21-902, looked up)
chain: GAFPSSVQIGGLFIRNTDQEYTAFRLAIFLHNTSPNASEAPFNLVPHVDNIETANSFAVTNAFCSQYSRGVFAIFGLYDKRSVHTLTSFCSALHISLITPSFPTEGESQFVLQLRPSLRGALLSLLDHYEWNCFVFLYDTDRGYSILQAIMEKAGQNGWHVSAICVENFNDVSYRQLLEELDRRQEKKFVIDCEIERLQNILEQIVSVGKHVKGYHYIIANLGFKDISLERFIHGGANVTGFQLVDFNTPMVTKLMDRWKKLDQREYPGSETPPKYTSALTYDGVLVMAETFRSLRRQKIDISRRGNAGDCLANPAAPWGQGIDMERTLKQVRIQGLTGNVQFDHYGRRVNYTMDVFELKSTGPRKVGYWNDMDKLVLIQDMPTLGNDTAAIENRTVVVTTIMESPYVMYKKNHEMFEGNDKYEGYCVDLASEIAKHIGIKYKIAIVPDGKYGARDADTKIWNGMVGELVYGKAEIAIAPLTITLVREEVIDFSKPFMSLGISIMIKKPQKSKPGVFSFLDPLAYEIWMCIVFAYIGVSVVLFLVSRFSPYEWHTEEPEDGKEGPSDQPPNEFGIFNSLWFSLGAFMQQGCDISPRSLSGRIVGGVWWFFTLIIISSYTANLAAFLTVERMVSPIESAEDLAKQTEIAYGTLDSGSTKEFFRRSKIAVYEKMWTYMRSAEPSVFTRTTAEGVARVRKSKGKFAFLLESTMNEYTEQRKPCDTMKVGGNLDSKGYGVATPKGSSLGNAVNLAVLKLNEQGLLDKLKNKWWYDKGECGSGGGDSKDKTSALSLSNVAGVFYILVGGLGLAMLVALIEFCYKSRAEAKRMKLTFSEATRNKARLSITGSVGENGRVLTPDCPKAVHTGTAIRQSSGLAVIASDLP
notes: GluA4; also called recombinant GluA4; rGluA4-GFP; source: tsA201 cells (BacMam), digitonin-solubilised, purified (Strep-Tactin, SEC); not shown: GFP, C-terminal, kept

Holding throughout (settings): both partners purified
The target in assay [1] is B3. Kind of assay: BLI; Octet RED384, 30 °C; Fc–dNOE1–mScarlet (20 μg/ml) captured on AMC biosensor; GluA4–GFP 0.78–50 nM; 20 mM Tris pH 8.0, 150 mM NaCl, 0.075% digitonin with 3 mM glutamate or 2 μM ZK and 10 μM (R,R)-2b; 1:1 binding model. (In general: Biolayer interferometry detects binding as a change in optical thickness at a sensor tip.)
The target of assay [2] is dNOE1–mScarlet (dimeric NOE1 construct, residues 205-481 with five GCN4 residues) (rat, UniProt Q62609 205-481). Kind of assay: SEC; FSEC of the dNOE1 construct alone, in the absence of a reducing agent. (Size exclusion chromatography separates by hydrodynamic size, large species first.)
The target of assay [3] is T1, recombinant full-length NOE1–mScarlet-His (rat, UniProt Q62609 25-485).
T1 construct: signal peptide in the construct; full-length rat NOE1, residues 1-485; Tag joined by an SG linker or an SG–HRV 3C site–AAAA motif; source: tsA201 cells (BacMam), secreted, purified (Ni-NTA, SEC); not shown: mScarlet, C-terminal, kept
T1 sequence (Q62609 25-485): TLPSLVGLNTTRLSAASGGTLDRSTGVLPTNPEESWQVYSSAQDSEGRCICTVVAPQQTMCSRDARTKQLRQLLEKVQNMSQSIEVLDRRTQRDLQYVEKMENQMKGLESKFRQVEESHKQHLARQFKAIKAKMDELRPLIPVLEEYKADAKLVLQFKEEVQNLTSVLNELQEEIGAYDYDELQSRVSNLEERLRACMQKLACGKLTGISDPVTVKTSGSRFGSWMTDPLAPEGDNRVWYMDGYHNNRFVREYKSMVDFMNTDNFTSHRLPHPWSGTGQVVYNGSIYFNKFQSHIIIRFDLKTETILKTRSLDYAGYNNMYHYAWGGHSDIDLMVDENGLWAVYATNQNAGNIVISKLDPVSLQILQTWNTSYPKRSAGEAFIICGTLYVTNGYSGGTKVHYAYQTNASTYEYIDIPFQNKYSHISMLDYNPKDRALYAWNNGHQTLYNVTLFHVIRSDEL
Description: SEC; FSEC, Superose 6 calibrated with mass markers; 5 nM full-length NOE1–mScarlet with 5–150 nM GluA4, or 1 nM with 1–100 nM CP-AMPARs; mScarlet fluorescence.

B1: Fc–dNOE1–mScarlet (Fc fusion)
chain: LKQEIDELQSRVSNLEERLRACMQKLACGKLTGISDPVTVKTSGSRFGSWMTDPLAPEGDNRVWYMDGYHNNRFVREYKSMVDFMNTDNFTSHRLPHPWSGTGQVVYNGSIYFNKFQSHIIIRFDLKTETILKTRSLDYAGYNNMYHYAWGGHSDIDLMVDENGLWAVYATNQNAGNIVISKLDPVSLQILQTWNTSYPKRSAGEAFIICGTLYVTNGYSGGTKVHYAYQTNASTYEYIDIPFQNKYSHISMLDYNPKDRALYAWNNGHQTLYNVTLFHVIR
modifications: Disulfide-linked, glycosylated dimer. Mouse Fc carrier (before the coiled coil) and C-terminal mScarlet-His left out. The position of the five GCN4 residues relative to Fc is not given; they are …
For orientation: Kd means the equilibrium constant for the complex coming apart. As for B1, the Kd in assay [1] is roughly 9.4 nM.

B2: dNOE1–mScarlet (dimeric NOE1 construct, residues 205-481 with five GCN4 residues) (domain or fragment)
chain: GLKQEIDELQSRVSNLEERLRACMQKLACGKLTGISDPVTVKTSGSRFGSWMTDPLAPEGDNRVWYMDGYHNNRFVREYKSMVDFMNTDNFTSHRLPHPWSGTGQVVYNGSIYFNKFQSHIIIRFDLKTETILKTRSLDYAGYNNMYHYAWGGHSDIDLMVDENGLWAVYATNQNAGNIVISKLDPVSLQILQTWNTSYPKRSAGEAFIICGTLYVTNGYSGGTKVHYAYQTNASTYEYIDIPFQNKYSHISMLDYNPKDRALYAWNNGHQTLYNVTLFHVIR
modifications: Disulfide-linked dimer (non-reducing), glycosylated. The cystatin SN signal peptide is assumed cleaved after ...AVALA by convention, leaving G plus GCN4 LKQEI. C-terminal GSG-3C-AAAA-mScarlet-His …
As a reminder, the stoichiometry N is the number of molecules, sites or subunits per partner or assembly. For B2, the “stoichiometry N” value in assay [2] turned out to be 2. Turning to B3, in assay [3], the “stoichiometry N” value is 2 receptors per NOE1 tetramer.

(Values after article PMC12422955 (Nature, 2025).)
